Test results taken from IntAct's records for PubMed 24863370.

B1: Calvin cycle protein CP12, chloroplastic (Chlamydomonas reinhardtii), A6Q0K5 (parent)
chain: MMLTKSVVISRPAVRPVSTRRAVVVRASGQPAVDLNKKVQDAVKEAEDACAKGTSADCAVAWDTVEELSAAVSHKKDAVKADVTLTDPLEAFCKDAPDADECRVYED
partner: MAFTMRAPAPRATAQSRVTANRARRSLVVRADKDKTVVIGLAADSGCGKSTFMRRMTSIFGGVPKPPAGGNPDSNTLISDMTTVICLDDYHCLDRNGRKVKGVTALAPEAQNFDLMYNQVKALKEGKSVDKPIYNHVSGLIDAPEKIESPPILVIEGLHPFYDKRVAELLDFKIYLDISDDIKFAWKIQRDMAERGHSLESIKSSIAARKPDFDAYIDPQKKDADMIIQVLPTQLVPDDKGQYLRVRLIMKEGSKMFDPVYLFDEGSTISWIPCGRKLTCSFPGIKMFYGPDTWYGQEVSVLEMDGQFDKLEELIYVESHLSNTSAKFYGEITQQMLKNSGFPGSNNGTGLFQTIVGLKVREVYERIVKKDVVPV
B2: Calvin cycle protein CP12, chloroplastic (Chlamydomonas reinhardtii), A6Q0K5 (parent)
chain: B1 chain
partner: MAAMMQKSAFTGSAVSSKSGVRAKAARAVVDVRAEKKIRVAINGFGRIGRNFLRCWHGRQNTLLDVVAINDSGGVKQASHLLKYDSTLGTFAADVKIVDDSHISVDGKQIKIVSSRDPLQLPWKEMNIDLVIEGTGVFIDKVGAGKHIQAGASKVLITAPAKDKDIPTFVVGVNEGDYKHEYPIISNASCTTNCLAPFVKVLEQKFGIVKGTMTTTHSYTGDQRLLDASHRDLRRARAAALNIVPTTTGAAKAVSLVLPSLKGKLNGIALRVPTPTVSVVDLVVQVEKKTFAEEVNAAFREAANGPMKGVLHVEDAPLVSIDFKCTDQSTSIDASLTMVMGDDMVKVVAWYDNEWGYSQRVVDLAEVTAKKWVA

Variants of: B1
Conditions: with kppr_chlre PRKA

| Variant | effect of a mutation on the interaction |
| --- | --- |
| P31S | decreasing interaction |

Variants of: B2
Conditions: with g3pa_chlre GAPA

| Variant | effect of a mutation on the interaction |
| --- | --- |
| K75S | decreasing interaction |
